Results from the supplement of paper PMC12764529.
± gives the half width of the 95% confidence interval.

Tests used:
[1] = folding stability dG unfold (combined trypsin and chymotrypsin); higher = more stable
Procedure, shortened: (§1)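 Unfolding free energy was derived, per protease or combined, by relating Bayesian-fitted K50 values from sequencing counts to a sequence-predicted unfolded-state K50 and a shared folded-state K50. The underlying digests exposed cysteine-free mini-proteins under 80 residues, in a PA-tagged cDNA display construct, to trypsin and chymotrypsin at 11 threefold-diluted concentrations and to a no-protease condition. A filter kept only designs with AlphaFold2 dimer inter-PAE above 15.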

[2] = folding stability dG unfold from trypsin proteolysis; higher = more stable
Procedure, shortened: as §1

[3] = folding stability dG unfold from chymotrypsin proteolysis; higher = more stable
Procedure, shortened: as §1

Sequence | folding stability dG unfold [1] [kcal/mol] | folding stability dG unfold [2] [kcal/mol] | folding stability dG unfold [3] [kcal/mol]
SAGGSAGGSMPTLRVKIEVTNPDGEKLELTITVPRDMTLEELKALAEELAKAGYEVRIVEVEPSAGGSAGGS [r12_804_TrROS_Hall] | 3.19 ± 0.17 | 3.61 ± 0.15 | 2.83 ± 0.069
SAGGMKIEFDEKTKRITITLPDGKKVEIELKDGRKVEITFERVDGKLKVVIKHKNEEEALELAKKLLSAGGS [r16_623_TrROS_Hall] | 1.55 ± 0.26 | 1.15 ± 0.086 | 1.34 ± 0.082
SAGGSFDPVEITTLEDGTIKILAKDPNTNKLFITTLKAKSIKTSSLGNGKTITTIPHEKVEESEELPSAGGS [r16_615_JUSTAS] | -0.554 ± 0.67 | -0.795 ± 0.66 | -0.0729 ± 0.51
SAGGSAGGSSMTFISTSTSPGNGYTYNIYSQPGKVVVTTTAPDGTVSVTTVEVSPDTSVTVTAASAGGSAGG [r6_380_JUSTAS] | 1.3 ± 0.085 | 1.16 ± 0.045 | 1.36 ± 0.12
SGATLFIGRFPGEGTLIAVAKLPNGKEIVISFGNYPEGIAGIAALARELDPRAEIKHIELVPPDSVPPEFSA [r9_137_TrMRF] | 1.45 ± 0.11 | 1.37 ± 0.038 | 1.49 ± 0.11
SAGGSVFESEKDLRVEVYKIKVGTTLGKEKNGKPKKPKFKEKEVLVVKVEVPLEDGTTLSAEFTFGSAGGSA [r2_218_TrMRF] | 2.52 ± 0.26 | 1.25 ± 0.13 | 3.24 ± 0.073
SAGGSAGGMKEVIEAALKDGSKEFYAPGFSPDKVYDVKITVYPGEGKVEIEVEGKRFTVSPEDLSAGGSAGG [r6_749_TrMRF] | 1.11 ± 0.23 | 1.48 ± 0.14 | 0.765 ± 0.18
SIRGMPPEVVLYIIRFFAREQKNKGMPPDDRPIEINIMMPNPEARKDAKKEIKEENPGIKDVKIEVMPPNSA [r9_341_TrROS] | 2.61 ± 0.56 | 2.2 ± 0.11 | 3.1 ± 0.17
SAGGSAGGSMRLTVEVSSLEEAEKLAEEIEERFDVEIVRVEVEETEEGGLRVTFDVKLHPDLGSAGGSAGGS [r12_577_TrMRF] | 2.82 ± 0.18 | 2.96 ± 0.16 | 2.94 ± 0.098
GSARFEASAFLAELPFPPQRVLVVLVRGEDGRVRLFVFFPDGSVVEFDLETGRVVRVIDLPDAPLPPGLLES [r1_409_TrMRF] | 3.39 ± 0.12 | 2.9 ± 0.071 | 3.63 ± 0.075
SAGITIIIRGPDAKEAAEDIAKELLKNGFKRPITVHVLDPDGKPWYRIKIQFDPKNPGKIKVKVEPYDSAGG [r19_85_TrROS] | 3.65 ± 0.076 | 3.39 ± 0.089 | 3.66 ± 0.042
SAGGSAGGSASMSPEELAEKYREEYEKKYGIPAVEVKVEVIPEEEKYVITIKLPGSEITVIVSAGGSAGGSA [r18_145_JUSTAS] | 3.11 ± 0.13 | 3.62 ± 0.26 | 2.74 ± 0.089
SAGGSAGGSAGPLRPRLYRVRFTNPDGSRREFLVPEGATLEEILKRFNIPESGRVELEPVSAGGSAGGSAGG [r11_340_TrMRF] | 2.26 ± 0.082 | 2.3 ± 0.033 | 2.04 ± 0.07
SAGGSAMDPSKLVRKKVRFRVVDPNGKPLGEIDIEVEFPGGVSEEEAEELLRELIAALAPPAGVEGSAGGSA [r15_310_TrMRF] | 2.73 ± 0.071 | 1.52 ± 0.022 | 3.023 ± 0.023
SAGGPRVEPLPLRVTYEDGVPPREVTVPLLAVTALDPETGEPVTFVNPGSLEVLAALLPPSVVSFDFSAGGS [r16_522_TrMRF] | 0.755 ± 0.05 | 0.714 ± 0.012 | 0.703 ± 0.066
SAGGMKVRVRLPDGTEVELEVTEVTVSTDPSTGTPVYTITLANGEKLTVTVPVDKPVRPGETVTVTPESAGG [r13_390_JUSTAS] | 3.81 ± 0.056 | 3.72 ± 0.056 | 3.71 ± 0.053
SAGLNIPPEMTVDELVEFLKSLGVKSYKVEKTEDPESYVVTFEFPDFTVVMTFHPDSVTITVVPKDEPLSAG [r5_899_TrMRF] | 3.34 ± 0.14 | 3.14 ± 0.11 | 3.52 ± 0.061
SAGGSAMLENLPELDIKIKVEYKAEILPDGSLLIPAKIELEIGDKKFEFEAKILINPNGEITIEIGSAGGSA [r15_891_TrMRF] | 2.96 ± 0.31 | 2.97 ± 0.26 | 2.45 ± 0.31
SAGGSAGGSAGMRTITIPIPDGDPENIEEQARELADAFPDLKGKKVNIEYHKDGWITITVSAGGSAGGSAGG [r17_324_TrROS] | 1.15 ± 0.18 | 0.694 ± 0.15 | 1.19 ± 0.1
SAGGSAGGSAGKKELTFKDKNGKTITVTLEDGEIKEIKIEKPPKPKVVKTEKKYVPKEELSAGGSAGGSAGG [r17_287_TrROS_Hall] | 0.135 ± 0.4 | 0.0355 ± 0.16 | 0.0761 ± 0.069
SAGGSAGGSAKKVKIEEKDGELTITVEPGEKVLIVYPDGTVEEVEVKEGDTITLPPGAKVLPSAGGSAGGSA [r18_452_TrROS_Hall] | 1.33 ± 0.24 | 0.513 ± 0.11 | 1.63 ± 0.12
